The values below come from publication PMC2860377.

As a reminder, the Km is the substrate concentration at which the rate is half of its maximum.

For the series, the system named is CSCC[C@H](N)C(=O)Nc1ccc2c(C)cc(=O)oc2c1. Kind of series: purified protein. The note with it: Fe(II) form, 10 μM FeCl2.

Turning to “MtMetAP1a (Mycobacterium tuberculosis H37Rv)”, the Km came to 161 µM.
